The results in this text go back to paper PMC2147998.

The assay deals with UNG2 S23D/T60D/S64D (human) (UniProt P13051). As to the kind of experiment: co-IP.
UniProt P13051, sequence (P13051 whole entry S23D/T60D/S64D): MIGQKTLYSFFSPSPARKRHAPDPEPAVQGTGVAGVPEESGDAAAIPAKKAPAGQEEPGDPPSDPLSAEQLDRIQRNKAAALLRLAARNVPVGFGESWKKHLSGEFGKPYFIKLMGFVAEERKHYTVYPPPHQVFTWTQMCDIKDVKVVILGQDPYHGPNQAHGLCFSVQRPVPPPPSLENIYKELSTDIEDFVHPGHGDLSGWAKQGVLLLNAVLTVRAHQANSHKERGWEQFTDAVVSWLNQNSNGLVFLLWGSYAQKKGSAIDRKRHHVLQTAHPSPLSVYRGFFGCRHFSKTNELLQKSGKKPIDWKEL

In turn, “replication protein A (RPA) (from UniProt P15927 1-270) (complex)” registered an RPA-binding capacity relative to WT UNG2 of 40%.
